Among the data in patent US20130330358A1, “CRYSTAL STRUCTURE AND PEPTIDE INHIBITORS OF HAUSP DEUBIQUITINASE” (priority 2011, published 2013) are n (stoichiometry) and Ka values, retold here.

This experiment deals with HAUSP TRAF domain (HAUSP^62-205) (human). Put plainly: ITC, titration against HAUSP TRAF domain, 20 °C. (In general: ITC needs no label: the signal is the heat of the interaction.)

B1: EBNA1^435-449 peptide (peptide)
peptide: EQGPADDPGEGPSTG
modifications: not checked
B1 displayed a n (stoichiometry) of 0.81.

B2: vIRF4^209-216 peptide (peptide)
peptide: EGASTSGM
modifications: not checked
Regarding B2, the n (stoichiometry) amounted to 0.81.

B3: MDM2^137-152 peptide (peptide)
peptide: LVQELQEEKPSSSHL
modifications: not checked
B3 gave a Ka of 90000 M⁻¹.
